For one assay, the target named is T1, mouse FcγRI (mouse, UniProt P26151 25-297).
T1 construct: bought; also called mFcgRI; mFcgR 1
T1 sequence (looked up): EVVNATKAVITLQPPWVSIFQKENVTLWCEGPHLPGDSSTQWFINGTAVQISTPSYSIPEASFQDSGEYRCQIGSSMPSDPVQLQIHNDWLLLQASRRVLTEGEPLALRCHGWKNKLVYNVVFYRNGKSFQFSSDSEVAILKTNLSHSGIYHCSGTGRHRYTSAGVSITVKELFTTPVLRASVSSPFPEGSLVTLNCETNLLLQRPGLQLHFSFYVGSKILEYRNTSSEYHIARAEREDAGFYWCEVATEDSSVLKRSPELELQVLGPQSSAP
The assay is described as follows: SPR, antibody captured by Protein L, mouse FcγR as analyte, pH 7.4, 25 C. (SPR reads the build-up and loss of mass on a sensor chip optically.)

In a further assay the target is T2, mouse FcγRIIb (mouse, UniProt P08101 30-207, limits assumed).
T2 construct: bought; also called mFcgRIIb; mFcgR IIb
T2 sequence (looked up): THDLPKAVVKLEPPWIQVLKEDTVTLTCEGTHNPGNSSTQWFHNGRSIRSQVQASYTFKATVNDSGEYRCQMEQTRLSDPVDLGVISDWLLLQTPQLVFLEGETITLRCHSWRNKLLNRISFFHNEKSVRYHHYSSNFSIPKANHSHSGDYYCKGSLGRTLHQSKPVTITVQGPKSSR
The assay is described as above.

Another assay concerns the target T3, mouse FcγRIII (mouse, UniProt P08508 31-215).
T3 construct: bought; also called mFcgRIII; mFcgR III
T3 sequence (looked up): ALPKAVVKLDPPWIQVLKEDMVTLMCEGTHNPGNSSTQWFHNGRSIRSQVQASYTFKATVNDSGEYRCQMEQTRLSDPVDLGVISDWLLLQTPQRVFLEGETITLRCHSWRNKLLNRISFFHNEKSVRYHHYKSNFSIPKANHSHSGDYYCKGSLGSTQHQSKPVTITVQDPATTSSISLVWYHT
Described as above.

Another assay has as its target T4, mouse FcγRIV (mouse, UniProt A0A0B4J1G0 21-203).
T4 construct: bought; also called mFcgRIV; mFcgR IV; the vendor's purification tag not given
T4 sequence: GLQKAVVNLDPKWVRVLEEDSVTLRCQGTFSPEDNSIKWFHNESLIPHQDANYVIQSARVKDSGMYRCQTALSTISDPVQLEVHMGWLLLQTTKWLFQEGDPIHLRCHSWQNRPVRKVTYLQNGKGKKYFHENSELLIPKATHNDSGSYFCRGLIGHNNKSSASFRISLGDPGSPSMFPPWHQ
The description is as above.

The target in assay [1] is T5, human FcγRIIb (human, UniProt P31994 43-217, limits assumed).
T5 construct: also called hFcgRIIb; FcγIIB
T5 sequence: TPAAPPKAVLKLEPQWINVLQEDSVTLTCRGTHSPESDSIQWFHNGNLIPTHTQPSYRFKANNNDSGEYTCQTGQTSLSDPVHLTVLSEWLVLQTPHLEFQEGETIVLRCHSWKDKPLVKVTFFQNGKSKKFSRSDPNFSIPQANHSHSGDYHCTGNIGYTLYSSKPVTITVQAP
The assay is described as follows: SPR (Biacore), amount of FcγRIIb bound to the captured antibody, relative to GpH7-B3/GpL16-k0 = 100.

Assay [2] concerns the target T6, human FcRn (soluble human FcRn complexed with β2-microglobulin) (human, UniProt P61769 21-119, limits assumed).
T6 construct: also called hFcRn
The assay is described as follows: SPR, antibody captured by Protein L, human FcRn as analyte, pH 7.0, 25 C.

Assay [3] has as its target T5, human FcγRIIb. The assay is described as follows: SPR, antibody captured by Protein L, human FcγR as analyte, pH 7.4, 25 C.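 Also: biacore T100 or T200 with Protein L amine-coupled on a CM4 chip, FcγRs diluted in ACES saline with polysorbate 20, buffer-only injection as blank.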
For a further assay, the target named is T7, human FcγRIIIa(V) (human, UniProt P08637 17-208, limits assumed).
T7 construct: also called hFcgRIIIa(V); allotype V158
Described as above.

The next assay has as its target T8, human FcγRIa (human, UniProt P12314 16-292, limits assumed).
T8 construct: also called hFcgRIa; hFcgRI
Described as above.

In another assay the target is T9, human FcγRIIa(R) (human, UniProt P12318 36-217).
T9 construct: also called hFcgRIIa(R); FcγRIIa type R
T9 chain: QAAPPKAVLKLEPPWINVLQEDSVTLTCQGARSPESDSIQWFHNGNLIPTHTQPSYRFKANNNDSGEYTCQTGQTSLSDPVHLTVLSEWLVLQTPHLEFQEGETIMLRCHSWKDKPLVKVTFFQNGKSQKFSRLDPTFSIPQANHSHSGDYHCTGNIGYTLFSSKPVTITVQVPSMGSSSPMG
Described as above.

The target in a further assay is T10, human FcγRIIa(H) (human, UniProt P12318 36-217).
T10 construct: also called hFcgRIIa(H); FcγRIIa type H
T10 sequence: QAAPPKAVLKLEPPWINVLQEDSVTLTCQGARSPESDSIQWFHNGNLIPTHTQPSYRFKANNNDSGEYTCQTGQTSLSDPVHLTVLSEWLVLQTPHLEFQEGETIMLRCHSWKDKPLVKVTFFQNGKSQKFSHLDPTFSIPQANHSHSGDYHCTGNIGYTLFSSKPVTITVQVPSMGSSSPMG
The assay is described as above.

T8 sequence (P12314 16-292 limits assumed): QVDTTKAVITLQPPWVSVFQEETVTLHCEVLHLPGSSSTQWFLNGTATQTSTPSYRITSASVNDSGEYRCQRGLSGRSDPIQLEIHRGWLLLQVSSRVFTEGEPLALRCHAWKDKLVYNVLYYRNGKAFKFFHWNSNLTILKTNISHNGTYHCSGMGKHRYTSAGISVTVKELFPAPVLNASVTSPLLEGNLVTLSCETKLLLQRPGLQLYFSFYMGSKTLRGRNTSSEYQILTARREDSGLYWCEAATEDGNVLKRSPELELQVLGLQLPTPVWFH
T7 sequence (P08637 other isoform, or with tags, fused parts or gaps limits assumed): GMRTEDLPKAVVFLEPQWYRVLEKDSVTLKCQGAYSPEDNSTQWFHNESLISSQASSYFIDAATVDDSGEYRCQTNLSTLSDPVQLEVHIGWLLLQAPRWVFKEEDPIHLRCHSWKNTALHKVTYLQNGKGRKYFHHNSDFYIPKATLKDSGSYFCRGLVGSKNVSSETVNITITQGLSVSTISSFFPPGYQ
T6 sequence (chain, as listed by the source limits assumed, chain 1 of 2): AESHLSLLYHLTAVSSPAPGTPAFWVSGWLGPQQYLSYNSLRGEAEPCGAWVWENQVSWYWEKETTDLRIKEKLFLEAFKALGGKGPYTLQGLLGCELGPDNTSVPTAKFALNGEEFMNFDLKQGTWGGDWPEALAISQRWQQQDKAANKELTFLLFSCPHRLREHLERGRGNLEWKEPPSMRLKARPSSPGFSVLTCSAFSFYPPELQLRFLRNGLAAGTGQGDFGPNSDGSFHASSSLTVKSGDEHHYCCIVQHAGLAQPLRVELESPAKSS
T6 sequence (P61769 21-119 limits assumed, chain 2 of 2): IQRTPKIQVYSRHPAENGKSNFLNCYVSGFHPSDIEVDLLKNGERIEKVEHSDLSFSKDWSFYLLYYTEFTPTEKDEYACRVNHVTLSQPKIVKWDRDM

B1: antibody with mPM1H-mIgG1-mF38 heavy chain (antibody)
heavy: DVQLQESGPVLVKPSQSLSLTCTVTGYSITSDHAWSWIRQFPGNKLEWMGYISYSGITTYNPSLKSRISITRDTSKNQFFLQLNSVTTGDTSTYYCARSLARTTAMDYWGQGTSVTVSSAKTTPPSVYPLAPGSAAQTNSMVTLGCLVKGYFPEPVTVTWNSGSLSSGVHTFPAVLQSDLYTLSSSVTVPSSTWPSETVTCNVAHPASSTKVDKKIVPRDCGCKPCICTVPEVSSVFIFPPKPKDVLYITLEPKVTCVVVDISKDDPEVQFSWFVDDVEVHTAQTQPREEQFNSTFRSVSELPIMHQDWLNGKEFKCRVNSAAFPAPIEKTISKTKGRPKAPQVYTIPPPKEQMAKDKVSLTCMITDFFPEDITVEWQWNGQPAENYKNTQPIMDTDGSYFVYSKLNVQKSNWEAGNTFTCSVLHEGLHWHHTEKSLSHSPGK
light: not shown
notes: T252Y/T256E/N434W; also called mPM1-mIgG1-mF38; copies: 2 + 2
On to B1, for which the “BINDING AMOUNT (RU)” value with mouse FcγRI was -2 RU; with mouse FcγRIIb it was 161 RU; with mouse FcγRIII, 403 RU; in the assay with mouse FcγRIV, -4.1 RU.

B2: antibody with mPM1H-mIgG1-mF40 heavy chain (antibody)
heavy: DVQLQESGPVLVKPSQSLSLTCTVTGYSITSDHAWSWIRQFPGNKLEWMGYISYSGITTYNPSLKSRISITRDTSKNQFFLQLNSVTTGDTSTYYCARSLARTTAMDYWGQGTSVTVSSAKTTPPSVYPLAPGSAAQTNSMVTLGCLVKGYFPEPVTVTWNSGSLSSGVHTFPAVLQSDLYTLSSSVTVPSSTWPSETVTCNVAHPASSTKVDKKIVPRDCGCKPCICTVKEVSKVFIFPPKPKDVLYITLEPKVTCVVVDISKDDPEVQFSWFVDDVEVHTAQTQPREEQFNSTFRSVSELPIMHQDWLNGKEFKCRVNSAAFPAPIEKTISKTKGRPKAPQVYTIPPPKEQMAKDKVSLTCMITDFFPEDITVEWQWNGQPAENYKNTQPIMDTDGSYFVYSKLNVQKSNWEAGNTFTCSVLHEGLHWHHTEKSLSHSPGK
light: not shown
notes: P235K/S239K/T252Y/T256E/N434W; also called mPM1-mIgG1-mF40; copies: 2 + 2
As for B2, the “BINDING AMOUNT (RU)” value is -3 RU in the assay with mouse FcγRI, -5.2 RU with mouse FcγRIIb, -18.7 RU in the assay with mouse FcγRIII and -8.9 RU in the assay with mouse FcγRIV.

B3: antibody with mPM1H-mIgG1-mF39 heavy chain (antibody)
heavy: DVQLQESGPVLVKPSQSLSLTCTVTGYSITSDHAWSWIRQFPGNKLEWMGYISYSGITTYNPSLKSRISITRDTSKNQFFLQLNSVTTGDTSTYYCARSLARTTAMDYWGQGTSVTVSSAKTTPPSVYPLAPGSAAQTNSMVTLGCLVKGYFPEPVTVTWNSGSLSSGVHTFPAVLQSDLYTLSSSVTVPSSTWPSETVTCNVAHPASSTKVDKKIVPRDCGCKPCICTVKEVSKVFIFPPKPKDVLYITLEPKVTCVVVDISKDDPEVQFSWFVDDVEVHTAQTQPREEQFNSTFRSVSELPIMHQDWLNGKEFKCRVNSAAFPAPIEKTISKTKGRPKAPQVYTIPPPKEQMAKDKVSLTCMITDFFPEDITVEWQWNGQPAENYKNTQPIMDTDGSYFVYSKLNVQKSNWEAGNTFTCSVLHEGLKNHHTEKSLSHSPGK
light: not shown
notes: P235K/S239K/T252Y/T256E/H433K; also called mPM1-mIgG1-mF39; copies: 2 + 2
In the case of B3, the “BINDING AMOUNT (RU)” value with mouse FcγRI is -3.1 RU; in the assay with mouse FcγRIIb, -3 RU; with mouse FcγRIII, -8.4 RU; in the assay with mouse FcγRIV it was -3.8 RU.

B4: G237F (antibody)
heavy: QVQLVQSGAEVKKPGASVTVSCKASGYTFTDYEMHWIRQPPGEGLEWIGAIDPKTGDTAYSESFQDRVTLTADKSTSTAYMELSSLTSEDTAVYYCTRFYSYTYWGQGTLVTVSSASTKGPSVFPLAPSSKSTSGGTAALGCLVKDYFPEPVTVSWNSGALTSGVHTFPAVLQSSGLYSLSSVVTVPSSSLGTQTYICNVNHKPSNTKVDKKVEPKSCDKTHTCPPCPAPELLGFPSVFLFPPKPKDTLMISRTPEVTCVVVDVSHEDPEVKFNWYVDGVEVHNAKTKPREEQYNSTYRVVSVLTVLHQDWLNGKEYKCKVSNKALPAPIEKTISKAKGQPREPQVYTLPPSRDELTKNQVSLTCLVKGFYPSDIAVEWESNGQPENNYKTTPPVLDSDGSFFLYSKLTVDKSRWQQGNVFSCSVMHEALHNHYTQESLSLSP
light: DIVMTQSPLSLPVTPGEPASISCQASESLVHSNRNTYLHWYLQKPGQSPQLLIYKVSNRFSGVPDRFSGSGSGTDFTLKISRVEAEDVGVYYCSQNTHVPPTFGQGTKVEIERTVAAPSVFIFPPSDEQLKSGTASVVCLLNNFYPREAKVQWKVDNALQSGNSQESVTEQDSKDSTYSLSSTLTLSKADYEKHKVYACEVTHQGLSSPVTKSFNRGEC
notes: also called GpH7-B3 variant G237F/GpL16-k0; copies: 2 + 2
As for B4, the binding result with human FcγRIIb [1] was “binds”.

B5: L234Y (antibody)
heavy: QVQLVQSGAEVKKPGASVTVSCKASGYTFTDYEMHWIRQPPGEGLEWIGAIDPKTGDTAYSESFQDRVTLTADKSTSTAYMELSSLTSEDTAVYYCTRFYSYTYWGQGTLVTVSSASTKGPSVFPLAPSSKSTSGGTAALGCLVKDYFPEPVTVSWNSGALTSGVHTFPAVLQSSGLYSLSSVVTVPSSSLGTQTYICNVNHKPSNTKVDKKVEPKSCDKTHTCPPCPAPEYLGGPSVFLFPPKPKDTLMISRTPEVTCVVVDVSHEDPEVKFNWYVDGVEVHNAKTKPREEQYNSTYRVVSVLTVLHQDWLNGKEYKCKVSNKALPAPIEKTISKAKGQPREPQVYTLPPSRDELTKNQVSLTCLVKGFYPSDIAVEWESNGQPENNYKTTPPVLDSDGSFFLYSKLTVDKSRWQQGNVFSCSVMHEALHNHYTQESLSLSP
light: DIVMTQSPLSLPVTPGEPASISCQASESLVHSNRNTYLHWYLQKPGQSPQLLIYKVSNRFSGVPDRFSGSGSGTDFTLKISRVEAEDVGVYYCSQNTHVPPTFGQGTKVEIERTVAAPSVFIFPPSDEQLKSGTASVVCLLNNFYPREAKVQWKVDNALQSGNSQESVTEQDSKDSTYSLSSTLTLSKADYEKHKVYACEVTHQGLSSPVTKSFNRGEC
notes: also called GpH7-B3 variant L234Y/GpL16-k0; copies: 2 + 2
B5: the binding result with human FcγRIIb [1] is reported as “binds”.

B6: S239D (antibody)
heavy: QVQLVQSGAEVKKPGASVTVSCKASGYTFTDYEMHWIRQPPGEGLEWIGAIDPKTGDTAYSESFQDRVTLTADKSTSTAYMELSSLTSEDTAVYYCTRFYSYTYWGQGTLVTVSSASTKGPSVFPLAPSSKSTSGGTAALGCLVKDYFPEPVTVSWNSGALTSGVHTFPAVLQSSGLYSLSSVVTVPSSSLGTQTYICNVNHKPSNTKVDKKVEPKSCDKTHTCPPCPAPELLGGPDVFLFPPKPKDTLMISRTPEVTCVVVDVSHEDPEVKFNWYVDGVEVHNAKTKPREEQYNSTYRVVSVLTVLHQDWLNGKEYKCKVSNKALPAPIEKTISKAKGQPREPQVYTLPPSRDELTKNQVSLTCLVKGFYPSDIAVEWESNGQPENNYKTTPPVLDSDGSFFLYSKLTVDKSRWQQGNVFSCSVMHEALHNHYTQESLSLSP
light: DIVMTQSPLSLPVTPGEPASISCQASESLVHSNRNTYLHWYLQKPGQSPQLLIYKVSNRFSGVPDRFSGSGSGTDFTLKISRVEAEDVGVYYCSQNTHVPPTFGQGTKVEIERTVAAPSVFIFPPSDEQLKSGTASVVCLLNNFYPREAKVQWKVDNALQSGNSQESVTEQDSKDSTYSLSSTLTLSKADYEKHKVYACEVTHQGLSSPVTKSFNRGEC
notes: also called GpH7-B3 variant S239D/GpL16-k0; copies: 2 + 2
On to B6, for which the binding result with human FcγRIIb [1] is “binds”.

B7: G237W (antibody)
heavy: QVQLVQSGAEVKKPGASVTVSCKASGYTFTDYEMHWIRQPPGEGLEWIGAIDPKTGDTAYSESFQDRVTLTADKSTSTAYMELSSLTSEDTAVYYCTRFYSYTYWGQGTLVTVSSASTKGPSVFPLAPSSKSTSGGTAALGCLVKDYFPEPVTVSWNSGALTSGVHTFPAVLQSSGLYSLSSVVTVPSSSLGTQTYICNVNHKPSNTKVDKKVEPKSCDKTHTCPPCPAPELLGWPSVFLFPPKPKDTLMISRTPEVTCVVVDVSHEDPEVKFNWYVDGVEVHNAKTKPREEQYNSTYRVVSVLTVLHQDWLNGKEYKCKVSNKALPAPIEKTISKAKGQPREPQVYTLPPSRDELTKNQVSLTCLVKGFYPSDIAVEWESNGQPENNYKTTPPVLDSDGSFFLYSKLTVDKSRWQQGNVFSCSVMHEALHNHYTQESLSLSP
light: DIVMTQSPLSLPVTPGEPASISCQASESLVHSNRNTYLHWYLQKPGQSPQLLIYKVSNRFSGVPDRFSGSGSGTDFTLKISRVEAEDVGVYYCSQNTHVPPTFGQGTKVEIERTVAAPSVFIFPPSDEQLKSGTASVVCLLNNFYPREAKVQWKVDNALQSGNSQESVTEQDSKDSTYSLSSTLTLSKADYEKHKVYACEVTHQGLSSPVTKSFNRGEC
notes: also called GpH7-B3 variant G237W/GpL16-k0; copies: 2 + 2
On to B7, for which the binding result with human FcγRIIb [1] is recorded as “binds”.

B8: antibody with VH3-IgG1-F1327 heavy chain and L(WT)-CK light chain (antibody)
heavy: QVQLQESGPGLVKPSETLSLTCAVSGHSISHDHAWSWVRQPPGEGLEWIGFISYSGITNYNPSLQGRVTISRDNSKNTLYLQMNSLRAEDTAVYYCARSLARTTAMDYWGEGTLVTVSSASTKGPSVFPLAPSSKSTSGGTAALGCLVKDYFPEPVTVSWNSGALTSGVHTFPAVLQSSGLYSLSSVVTVPSSSLGTQTYICNVNHKPSNTKVDKKVEPKSCDKTHTCPPCPAPEAAGGPSVFLFPPKPKDVLYISRTPEVTCVVVDVSHEDPEVKFNWYVDGVEVHNAKTKPREEQYASTYRVVSVLQPLHADWLNGKEYKCKVSNKALPAPIEKTISKAKGQPREPQVYTLPPSRDELTKNQVSLTCLVKGFYPSDIAVEWESNGQPENNYKTTPPVLDSDGSFFLYSKLTVDKSRWQQGNVFSCSVMHEALHYHVTQKSLSLSP
light: not shown
notes: L234A/L235A/N297A on VH3-IgG1-F947; copies: 2 + 2
The Kd is a measure of binding affinity in units of concentration. A high value points to lower affinity. Take B8: the dissociation constant Kd in [2] is 14 nM. Besides, the “BINDING AMOUNT (RU)” value with human FcγRIIb [3] is 0.74 RU; with human FcγRIIIa(V) it was -0.6 RU; with human FcγRIa it was 0.87 RU; in the assay with human FcγRIIa(R), -0.2 RU; with human FcγRIIa(H), -1.14 RU.

The values are drawn from US20200199241A1 (Chugai, published 2020).
